Source: article PMC3026807

Target: Arg224 (UniProt position 224, YHALYRYFVEL)
Test: electrophysiology

| Substance | pKa (Bath (mM): 67.5 Na2SO4, 4 KCl, 1 K gluconate, 2 CaCl2, 1 MgCl2, 105 sucrose (standard solution). The article does not state explicitly which bath was used for Figure 5. Pipette: 140 mM KCl., 10 mM Hepes/Tris, MES for pH 5.0-6.5, AMPSO for pH 8.5-9.0, CAPS for pH 9.5-11.0, concatenated WT-WT channel, pHo gating) | pKa (pHo-gated channel, closed to open on alkalinization, non-concatenated WT, cited from earlier work) |
| --- | --- | --- |
| TASK-2 WT-WT concatenated tandem dimer (Mus musculus; deletion of the C-terminal 148 residues (after V354) in the first protomer; insertion of L355-D356 linker; no substitution at R224 in either protomer) | 8.2±0.15 |  |
| TASK-2 (K2P5.1, KCNK5) two-pore-domain potassium channel (Mus musculus) |  | 8.0 |
